{"source": "ChEMBL document CHEMBL5137095", "about": "“N-Benzyl Benzamide Derivatives as Selective Sub-Nanomolar Butyrylcholinesterase Inhibitors for Possible Treatment in Advanced Alzheimer's Disease” (J Med Chem, 2022)", "proteins": {"B1": {"name": "Cholinesterase (Homo sapiens), P06276 (protein)", "chain": "MHSKVTIICIRFLFWFLLLCMLIGKSHTEDDIIIATKNGKVRGMNLTVFGGTVTAFLGIPYAQPPLGRLRFKKPQSLTKWSDIWNATKYANSCCQNIDQSFPGFHGSEMWNPNTDLSEDCLYLNVWIPAPKPKNATVLIWIYGGGFQTGTSSLHVYDGKFLARVERVIVVSMNYRVGALGFLALPGNPEAPGNMGLFDQQLALQWVQKNIAAFGGNPKSVTLFGESAGAASVSLHLLSPGSHSLFTRAILQSGSFNAPWAVTSLYEARNRTLNLAKLTGCSRENETEIIKCLRNKDPQEILLNEAFVVPYGTPLSVNFGPTVDGDFLTDMPDILLELGQFKKTQILVGVNKDEGTAFLVYGAPGFSKDNNSIITRKEFQEGLKIFFPGVSEFGKESILFHYTDWVDDQRPENYREALGDVVGDYNFICPALEFTKKFSEWGNNAFFYYFEHRSSKLPWPEWMGVMHGYEIEFVFGLPLERRDNYTKAEEILSRSIVKRWANFAKYGNPNETQNNSTSWPVFKSTEQKYLTLNTESTRIMTKLRAQQCRFWTSFFPKVLEMTGNIDEAEWEWKAGFHRWNNYMMDWKNQFNDYTSKKESCVGL"}}, "key": {"[1]": {"compound": "CCN(CC)Cc1ccccc1CNC(=O)c1cccc(NC(=O)c2ccc(F)cc2)c1", "experiment": "Mixed type inhibition of human BChE assessed as Vmax at 0.2 nM using BTC as substrate by Lineweaver-Burk plot analysis"}, "[2]": {"compound": "CCN(CC)Cc1ccccc1CNC(=O)c1cccc(NC(=O)c2ccc(F)cc2)c1", "experiment": "Mixed type inhibition of human BChE assessed as Vmax at 0.4 nM using BTC as substrate by Lineweaver-Burk plot analysis"}, "[3]": {"compound": "CCN(CC)Cc1ccccc1CNC(=O)c1cccc(NC(=O)c2ccc(F)cc2)c1", "experiment": "Mixed type inhibition of human BChE assessed as Vmax at 0.8 nM using BTC as substrate by Lineweaver-Burk plot analysis"}, "[4]": {"compound": "CCN(CC)Cc1ccccc1CNC(=O)c1cccc(NC(=O)c2ccc(F)cc2)c1", "experiment": "Mixed type inhibition of human BChE assessed as Vmax at 1 nM using BTC as substrate by Lineweaver-Burk plot analysis"}, "[5]": {"compound": "CCN(CC)Cc1ccccc1CNC(=O)c1cccc(NC(=O)c2ccc(F)cc2)c1", "experiment": "Mixed type inhibition of human BChE assessed as Vmax at 1.5 nM using BTC as substrate by Lineweaver-Burk plot analysis"}, "[6]": {"compound": "CCN(CC)Cc1ccccc1CNC(=O)c1cccc(NC(=O)c2ccc(F)cc2)c1", "experiment": "Mixed type inhibition of human BChE assessed as Km at 0.2 nM using BTC as substrate by Lineweaver-Burk plot analysis"}, "[7]": {"compound": "CCN(CC)Cc1ccccc1CNC(=O)c1cccc(NC(=O)c2ccc(F)cc2)c1", "experiment": "Mixed type inhibition of human BChE assessed as Km at 0.4 nM using BTC as substrate by Lineweaver-Burk plot analysis"}, "[8]": {"compound": "CCN(CC)Cc1ccccc1CNC(=O)c1cccc(NC(=O)c2ccc(F)cc2)c1", "experiment": "Mixed type inhibition of human BChE assessed as Km at 0.8 nM using BTC as substrate by Lineweaver-Burk plot analysis"}, "[9]": {"compound": "CCN(CC)Cc1ccccc1CNC(=O)c1cccc(NC(=O)c2ccc(F)cc2)c1", "experiment": "Mixed type inhibition of human BChE assessed as Km at 1 nM using BTC as substrate by Lineweaver-Burk plot analysis"}, "[10]": {"compound": "CCN(CC)Cc1ccccc1CNC(=O)c1cccc(NC(=O)c2ccc(F)cc2)c1", "experiment": "Mixed type inhibition of human BChE assessed as Km at 1.5 nM using BTC as substrate by Lineweaver-Burk plot analysis"}, "[11]": {"compound": "CCN(CC)Cc1ccccc1CNC(=O)c1cc(C)cc(NC(=O)c2ccc(F)cc2)c1", "experiment": "Non competitive inhibition of human BChE assessed as Vmax at 0.02 nM using BTC as substrate by Lineweaver-Burk plot analysis"}, "[12]": {"compound": "CCN(CC)Cc1ccccc1CNC(=O)c1cc(C)cc(NC(=O)c2ccc(F)cc2)c1", "experiment": "Non competitive inhibition of human BChE assessed as Vmax at 0.1 nM using BTC as substrate by Lineweaver-Burk plot analysis"}, "[13]": {"compound": "CCN(CC)Cc1ccccc1CNC(=O)c1cc(C)cc(NC(=O)c2ccc(F)cc2)c1", "experiment": "Non competitive inhibition of human BChE assessed as Vmax at 0.12 nM using BTC as substrate by Lineweaver-Burk plot analysis"}, "[14]": {"compound": "CCN(CC)Cc1ccccc1CNC(=O)c1cc(C)cc(NC(=O)c2ccc(F)cc2)c1", "experiment": "Non competitive inhibition of human BChE assessed as Vmax at 0.15 nM using BTC as substrate by Lineweaver-Burk plot analysis"}, "[15]": {"compound": "CCN(CC)Cc1ccccc1CNC(=O)c1cc(C)cc(NC(=O)c2ccc(F)cc2)c1", "experiment": "Non competitive inhibition of human BChE assessed as Km at 0.02 nM using BTC as substrate by Lineweaver-Burk plot analysis"}, "[16]": {"compound": "CCN(CC)Cc1ccccc1CNC(=O)c1cc(C)cc(NC(=O)c2ccc(F)cc2)c1", "experiment": "Non competitive inhibition of human BChE assessed as Km at 0.1 nM using BTC as substrate by Lineweaver-Burk plot analysis"}, "[17]": {"compound": "CCN(CC)Cc1ccccc1CNC(=O)c1cc(C)cc(NC(=O)c2ccc(F)cc2)c1", "experiment": "Non competitive inhibition of human BChE assessed as Km at 0.12 nM using BTC as substrate by Lineweaver-Burk plot analysis"}, "[18]": {"compound": "CCN(CC)Cc1ccccc1CNC(=O)c1cc(C)cc(NC(=O)c2ccc(F)cc2)c1", "experiment": "Non competitive inhibition of human BChE assessed as Km at 0.15 nM using BTC as substrate by Lineweaver-Burk plot analysis"}}}
{"protein": "B1", "values": [{"measurement": "Vmax", "setting": "[1]", "value": 0.7, "unit": "s⁻¹"}, {"measurement": "Vmax", "setting": "[2]", "value": 0.86, "unit": "s⁻¹"}, {"measurement": "Vmax", "setting": "[3]", "value": 0.63, "unit": "s⁻¹"}, {"measurement": "Vmax", "setting": "[4]", "value": 0.61, "unit": "s⁻¹"}, {"measurement": "Vmax", "setting": "[5]", "value": 0.48, "unit": "s⁻¹"}, {"measurement": "Km", "setting": "[6]", "value": 511, "unit": "s⁻¹"}, {"measurement": "Km", "setting": "[7]", "value": 558, "unit": "s⁻¹"}, {"measurement": "Km", "setting": "[8]", "value": 621, "unit": "s⁻¹"}, {"measurement": "Km", "setting": "[9]", "value": 684, "unit": "s⁻¹"}, {"measurement": "Km", "setting": "[10]", "value": 707, "unit": "s⁻¹"}, {"measurement": "Vmax", "setting": "[11]", "value": 0.38, "unit": "s⁻¹"}, {"measurement": "Vmax", "setting": "[12]", "value": 0.24, "unit": "s⁻¹"}, {"measurement": "Vmax", "setting": "[13]", "value": 0.19, "unit": "s⁻¹"}, {"measurement": "Vmax", "setting": "[14]", "value": 0.15, "unit": "s⁻¹"}, {"measurement": "Km", "setting": "[15]", "value": 205, "unit": "s⁻¹"}, {"measurement": "Km", "setting": "[16]", "value": 204, "unit": "s⁻¹"}, {"measurement": "Km", "setting": "[17]", "value": 201, "unit": "s⁻¹"}, {"measurement": "Km", "setting": "[18]", "value": 201, "unit": "s⁻¹"}]}
